In patent EP4039268A1 (IMBA-Institut für Molekulare Biotechnologie GmbH, dated 2022):

Columns and labels:
Experiment in all cases: ELISA screen
[1] = molecular target: T1, monomeric SARS-CoV-2 receptor binding domain (RBD-H6) (SARS-CoV-2, UniProt P0DTC2 319-541)
T1 construct: Made in HEK293-6E cells; also called RBD Spike; monomeric RBD

[2] = molecular target: T2, full-length trimeric SARS-CoV-2 Spike protein (Spike-H6) (SARS-CoV-2, N-glycosylated (22 N-glycosylation sites))
T2 construct: also called trimeric Spike; full-length Spike-H6

[3] = molecular target: T3, human recombinant soluble ACE2 (human, UniProt Q9BYF1 18-740)
T3 construct: also called hrsACE2
T3 sequence (Q9BYF1 18-740 limits assumed): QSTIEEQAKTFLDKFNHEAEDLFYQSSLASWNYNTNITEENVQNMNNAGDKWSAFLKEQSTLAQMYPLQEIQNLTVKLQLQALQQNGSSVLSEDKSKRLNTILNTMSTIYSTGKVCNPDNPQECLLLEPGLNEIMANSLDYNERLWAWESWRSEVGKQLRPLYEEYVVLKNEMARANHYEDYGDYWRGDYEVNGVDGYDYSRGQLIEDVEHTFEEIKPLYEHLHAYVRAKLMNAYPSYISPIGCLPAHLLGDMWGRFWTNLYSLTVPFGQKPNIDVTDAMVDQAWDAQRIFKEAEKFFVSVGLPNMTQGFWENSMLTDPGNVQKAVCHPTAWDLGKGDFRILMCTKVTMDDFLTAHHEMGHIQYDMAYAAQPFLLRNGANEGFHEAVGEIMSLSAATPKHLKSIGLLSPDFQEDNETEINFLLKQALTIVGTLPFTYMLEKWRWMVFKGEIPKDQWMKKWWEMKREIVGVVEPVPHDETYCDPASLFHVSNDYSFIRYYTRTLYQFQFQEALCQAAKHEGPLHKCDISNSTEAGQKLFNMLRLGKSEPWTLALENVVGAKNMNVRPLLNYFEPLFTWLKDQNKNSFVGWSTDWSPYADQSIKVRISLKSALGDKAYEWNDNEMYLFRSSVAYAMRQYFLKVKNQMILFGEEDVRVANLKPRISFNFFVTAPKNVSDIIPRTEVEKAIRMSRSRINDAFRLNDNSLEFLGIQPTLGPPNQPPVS

B1: Pla2r1_8 CRD-mouse IgG2a-Fc fusion protein (Fc fusion)
chain: FKGNCYSFSTVLDSRSFEDAHEFCKSEGSNLLAIRDAAENSFLLEELLAFGSSVQMVWLNAQFDNNNKTLRWFDGTPTEQSNWGLRKPDMDHLKPHPCVVLRIPEGIWHFTPCEDKKGFICKGGGSGGGSGGGS
- Mean normalized OD [1]: 0.019 OD
- Mean normalized OD [2]: -0.002 OD
- Mean normalized OD [3]: -0.005 OD

B2: Siglec12 CRD-mouse IgG2a-Fc fusion protein (Fc fusion)
chain: PQEVFTLNVERKVVVQEGLCVLVPCNFSYLKKRLTDWTDSDPVHGFWYREGTDRRKDSIVATNNPIRKAVKETRNRFFLLGDPWRNDCSLNIREIRKKDAGLYFFRLERGKTKYNYMWDKMGGGSGGGSGGGS
- Mean normalized OD [1]: -0.021 OD
- Mean normalized OD [2]: 0.046 OD
- Mean normalized OD [3]: -0.105 OD

B3: Mrc1_3 CRD-mouse IgG2a-Fc fusion protein (Fc fusion)
chain: HGFYCYLIGSTLSTFTDANHTCTNEKAYLTTVEDRYEQAFLTSLVGLRPEKYFWTGLSDVQNKGTFRWTVDEQVQFTHWNADMPGRKAGCVAMKTGVAGGLWDVLSCEEKAKFVCKGGGSGGGSGGGS
- Mean normalized OD [1]: 0.038 OD
- Mean normalized OD [2]: 0.037 OD
- Mean normalized OD [3]: -0.064 OD

B4: Reg1 CRD-mouse IgG2a-Fc fusion protein (Fc fusion)
chain: ISCPEGSNAYSSYCYYFTEDRLTWADADLFCQNMNSGYLVSVLSQAEGNFVASLIKESGTTDANVWTGLHDPKRNRRWHWSSGSLFLYKSWATGSPNSSNRGYCVSLTSNTGYKKWKDDNCDAQYSFVCKFGGGSGGGSGGGS
- Mean normalized OD [1]: 0.009 OD
- Mean normalized OD [2]: 1.55 OD
- Mean normalized OD [3]: -0.073 OD

B5: Ly75_9 CRD-mouse IgG2a-Fc fusion protein (Fc fusion)
chain: YKDGVYSVIQKKVTWYEALNACSQSGGELASVHNPNGKLFLEDIVNRDGFPLWVGLSSHDGSESSFEWSDGRAFDYVPWQSLQSPGDCVVLYPKGIWRREKCLSVKDGAICYKGGGSGGGSGGGS
- Mean normalized OD [1]: 0.004 OD
- Mean normalized OD [2]: 0.001 OD
- Mean normalized OD [3]: -0.014 OD

B6: Mrc2_5 CRD-mouse IgG2a-Fc fusion protein (Fc fusion)
chain: FQEAEYKFFEHHSSWAQAQRICTWFQADLTSVHSQAELDFLGQNLQKLSSDQEQHWWIGLHTLESDGRFRWTDGSIINFISWAPGKPRPIGKDKKCVYMTARQEDWGDQRCHTALPYICKGGGSGGGSGGGS
- Mean normalized OD [1]: 0.002 OD
- Mean normalized OD [2]: -0.002 OD
- Mean normalized OD [3]: -0.005 OD

B7: Mrc1_7 CRD-mouse IgG2a-Fc fusion protein (Fc fusion)
chain: YGKSSYSLMKLKLPWHEAETYCKDHTSLLASILDPYSNAFAWMKMHPFNVPIWIALNSNLTNNEYTWTDRWRVRYTNWGADEPKLKSACVYMDVDGYWRTSYCNESFYFLCKGGGSGGGSGGGS
- Mean normalized OD [1]: 0.02 OD
- Mean normalized OD [2]: -0.002 OD
- Mean normalized OD [3]: -0.008 OD

B8: Reg2 CRD-mouse IgG2a-Fc fusion protein (Fc fusion)
chain: INCPEGANAYGSYCYYLIEDRLTWGEADLFCQNMNAGHLVSILSQAESNFVASLVKESGTTASNVWTGLHDPKSNRRWHWSSGSLFLFKSWATGAPSTANRGYCVSLTSNTAYKKWKDENCEAQYSFVCKFGGGSGGGSGGGS
- Mean normalized OD [1]: 0.026 OD
- Mean normalized OD [2]: 0.056 OD
- Mean normalized OD [3]: -0.042 OD

B9: Pkd1 CRD-mouse IgG2a-Fc fusion protein (Fc fusion)
chain: GNGHCYRLVAEKAPWLQAQEQCRTWAGAALAMVDSPAIQHFLVSKVTRSLDVWIGFSSVEGTEGLDPRGEAFSLESCQNWLPGEPHPATAEHCVRLGPAGQCNTDLCSAPHSYVCEGGGSGGGSGGGS
- Mean normalized OD [1]: 0 OD
- Mean normalized OD [2]: 0 OD
- Mean normalized OD [3]: -0.01 OD

B10: Reg3g CRD-mouse IgG2a-Fc fusion protein (Fc fusion)
chain: YGSYCYALFSVSKNWYDADMACQKRPSGHLVSVLSGAEASFLSSMIKSSGNSGQYVWIGLHDPTLGYEPNRGGWEWSNADVMNYINWETNPSSSSGNHCGTLSRASGFLKWRENYCNLELPYVCKGGGSGGGSGGGS
- Mean normalized OD [1]: 0.017 OD
- Mean normalized OD [2]: -0.009 OD
- Mean normalized OD [3]: -0.014 OD

B11: Cd302 CRD-mouse IgG2a-Fc fusion protein (Fc fusion)
chain: FQGSCYAFLQVTINVENIEDVRKQCTDHGADMVSIHNEEENAFILDTLQKRWKGPDDLLLGMFYDTDDATFKWYDHSNMTFDKWADQDGEDLVDTCGFLYTKTGEWRKGDCEISSVEGTLGGGSGGGSGGGS
- Mean normalized OD [1]: 0.001 OD
- Mean normalized OD [2]: -0.002 OD
- Mean normalized OD [3]: -0.002 OD

B12: Reg3a CRD-mouse IgG2a-Fc fusion protein (Fc fusion)
chain: YRSHCYALVMTPKSWFQADLVCQKRPSGHLVSILSGGEASFVSSLVNGRVDNYQDIWIGLHDPTMGQQPNGGGWEWSNSDVLNYLNWDGDPSSTVNRGHCGSLTASSGFLKWGDYYCDGTLPFVCKGGGSGGGSGGGS
- Mean normalized OD [1]: 0.039 OD
- Mean normalized OD [2]: 0.006 OD
- Mean normalized OD [3]: -0.132 OD

B13: Mrc1_8 CRD-mouse IgG2a-Fc fusion protein (Fc fusion)
chain: FYGHCYYFESSFTRSWGQASLECLRMGASLVSIETAAESSFLSYRVEPLKSKTNFWIGMFRNVEGKWLWLNDNPVSFVNWKTGDPSGERNDCVVLASSSGLWNNIHCSSYKGFICKGGGSGGGSGGGS
- Mean normalized OD [1]: 0.019 OD
- Mean normalized OD [2]: -0.057 OD
- Mean normalized OD [3]: -0.021 OD

B14: Pla2r1_2 CRD-mouse IgG2a-Fc fusion protein (Fc fusion)
chain: FNRKCYKLKKDRKSWLGALHSCQSNDSVLMDVASLAEVEFLVSLLRDENASETWIGLSSNKIPVSFEWSSGSSVIFTNWYPLEPRILPNRRQLCVSAEESDGRWKVKDCKERLFYICKGGGSGGGSGGGS
- Mean normalized OD [1]: 0.011 OD
- Mean normalized OD [2]: 0.001 OD
- Mean normalized OD [3]: -0.019 OD

B15: Cd209e CRD-mouse IgG2a-Fc fusion protein (Fc fusion)
chain: FFNGNCYFFSKSQRDWHDSMTACKEMGAQLVIIKSHEEQSFLQQTSKKNSYTWMGLSDLNKEGEWYWLDGSPLSDSFEKYWKKGQPNNVGGQDCVEFRDNGWNDAKCEQRKFWICKGGGSGGGSGGGS
- Mean normalized OD [1]: 0.048 OD
- Mean normalized OD [2]: 0.045 OD
- Mean normalized OD [3]: -0.016 OD

B16: Pkd1l2 CRD-mouse IgG2a-Fc fusion protein (Fc fusion)
chain: not shown
- Mean normalized OD [1]: 0.001 OD
- Mean normalized OD [2]: 0.001 OD
- Mean normalized OD [3]: -0.002 OD

B17: Cd69 CRD-mouse IgG2a-Fc fusion protein (Fc fusion)
chain: YKRTCYFFSTTTKSWALAQRSCSEDAATLAVIDSEKDMTFLKRYSGELEHWIGLKNEANQTWKWANGKEFNSWFNLTGSGRCVSVNHKNVTAVDCEANFHWVCSGGGSGGGSGGGS
- Mean normalized OD [1]: 0.001 OD
- Mean normalized OD [2]: 0.001 OD
- Mean normalized OD [3]: -0.022 OD

B18: Reg3b CRD-mouse IgG2a-Fc fusion protein (Fc fusion)
chain: YGSYCYALFQIPQTWFDAELACQKRPGGHLVSVLNSAEASFLSSMVKRTGNSYQYTWIGLHDPTLGAEPNGGGWEWSNNDVMNYFNWERNPSTALDRAFCGSLSRASGFLKWRDMTCEVKLPYVCKGGGSGGGSGGGS
- Mean normalized OD [1]: 0.004 OD
- Mean normalized OD [2]: 0.005 OD
- Mean normalized OD [3]: -0.009 OD

B19: Mrc2_8 CRD-mouse IgG2a-Fc fusion protein (Fc fusion)
chain: FREHCYSFHMEVLLGHKEALQRCQKAGGTVLSILDEMENVFVWEHLQTAEAQSRGAWLGMNFNPKGGTLVWQDNTAVNYSNWGPPGLGPSMLSHNSCYWIQSSSGLWRPGACTNITMGVVCGGGSGGGSGGGS
- Mean normalized OD [1]: 0.003 OD
- Mean normalized OD [2]: 0 OD
- Mean normalized OD [3]: -0.001 OD

B20: Siglec1 CRD-mouse IgG2a-Fc fusion protein (Fc fusion)
chain: TWGVSSPKNVQGLSGSCLLIPCIFSYPADVPVSNGITAIWYYDYSGKRQVVIHSGDPKLVDKRFRGRAELMGNMDHKVCNLLLKDLKPEDSGTYNFRFEISDSNRWLDVKGTTVTVTGGGSGGGSGGGS
- Mean normalized OD [1]: 0 OD
- Mean normalized OD [2]: 0 OD
- Mean normalized OD [3]: -0.002 OD

B21: Mrc1_6 CRD-mouse IgG2a-Fc fusion protein (Fc fusion)
chain: YKNKCFKIFGFANEEKKSWQDARQACKGLKGNLVSIENAQEQAFVTYHMRDSTFNAWTGLNDINAEHMFLWTAGQGVHYTNWGKGYPGGRRSSLSYEDADCVVVIGGNSREAGTWMDDTCDSKQGYICQGGGSGGGSGGGS
- Mean normalized OD [1]: 0.004 OD
- Mean normalized OD [2]: 0.004 OD
- Mean normalized OD [3]: -0.001 OD

B22: Mrc2_6 CRD-mouse IgG2a-Fc fusion protein (Fc fusion)
chain: FLNKCFRIQGQDPQDRVKWSEAQFSCEQQEAQLVTIANPLEQAFITASLPNVTFDLWIGLHASQRDFQWIEQEPLLYTNWAPGEPSGPSPAPSGTKPTSCAVILHSPSAHFTGRWDDRSCTEETHGFICGGGSGGGSGGGS
- Mean normalized OD [1]: 0.006 OD
- Mean normalized OD [2]: 0.011 OD
- Mean normalized OD [3]: -0.019 OD

B23: Sell CRD-mouse IgG2a-Fc fusion protein (Fc fusion)
chain: WTYHYSEKPMNWENARKFCKQNYTDLVAIQNKREIEYLENTLPKSPYYYWIGIRKIGKMWTWVGTNKTLTKEAENWGAGEPNNKKSKEDCVEIYIKRERDSGKWNDDACHKRKAALCGGGSGGGSGGGS
- Mean normalized OD [1]: -0.041 OD
- Mean normalized OD [2]: -0.016 OD
- Mean normalized OD [3]: -0.23 OD

B24: Pla2r1_1 CRD-mouse IgG2a-Fc fusion protein (Fc fusion)
chain: SSRICYQFNLLSSLSWNQAHSSCLMQGGALLSIADEDEEDFIRKHLSKVVKEVWIGLNQLDEKAGWQWSDGTPLSYLNWSQEITPGPFVEHHCGTLEVVSAAWRSRDCESTLPYICKGGGSGGGSGGGS
- Mean normalized OD [1]: 0 OD
- Mean normalized OD [2]: 0 OD
- Mean normalized OD [3]: -0.066 OD

B25: Sftpa1 CRD-mouse IgG2a-Fc fusion protein (Fc fusion)
chain: not shown
- Mean normalized OD [1]: 0.002 OD
- Mean normalized OD [2]: 0.005 OD
- Mean normalized OD [3]: -0.092 OD

B26: Ly75_7 CRD-mouse IgG2a-Fc fusion protein (Fc fusion)
chain: YLNNLYKIISKPLTWHGALKECMKEKMRLVSITDPYQQAFLAVQATLRNSSFWIGLSSQDDELNFGWSDGKRLQFSNWAGSNEQLDDCVILDTDGFWKTADCDDNQPGAICYYGGGSGGGSGGGS
- Mean normalized OD [1]: 0.003 OD
- Mean normalized OD [2]: 0.001 OD
- Mean normalized OD [3]: -0.009 OD

B27: Mrc1_5 CRD-mouse IgG2a-Fc fusion protein (Fc fusion)
chain: YKDYQYYFSKEKETMDNARAFCKKNFGDLATIKSESEKKFLWKYINKNGGQSPYFIGMLISMDKKFIWMDGSKVDFVAWATGEPNFANDDENCVTMYTNSGFWNDINCGYPNNFICQGGGSGGGSGGGS
- Mean normalized OD [1]: 0 OD
- Mean normalized OD [2]: -0.001 OD
- Mean normalized OD [3]: -0.004 OD
